In test [1] the target is N^α-Ac-Lys-(D)-Ala-(D)-Ala peptide. The note with it: vancomycin to (D)-Ala-(D)-Ala, literature; cited from earlier work.
Test [2] has as its system N^α-Ac-Lys-(D)-Ala-(D)-Lac peptide. The following applies: cited from earlier work.
The test system of test [3] is N^α-Ac-Lys-(D)-Ala-(D)-Ala peptide. Nature of the test: SPR binding to vancomycin-susceptible bacterial cell wall model. The following applies: for Kd: (D)-Ala-(D)-Ala surface. From the text:
SPR spectroscopy is a real-time kinetic method that allows the measurement of the on-rate constant (kon), the off-rate constant (koff), and equilibrium dissociation constant KD (=koff/kon) for receptor-ligand interactions occurring on the surface (see, e.g., Rao, J.; et al., Chem. Biol. (Cambridge, Mass., U.S.) 1999, 6, 353-359; Rao, J.; et al., J. Am. Chem. Soc. 1999, 121, 2629-2630; Hong, S.; et al., Chem. Biol. (Cambridge, Mass., U.S.) 2007, 14, 107-115; Li, M.-H.; Eur. J. Med. Chem. 2012, 47, 560-572; Plantinga, A.; et al., ACS Med. Chem. Lett. 2011, 2, 363-367; Cooper, M. A.; et al., Bioorg. Med. Chem. 2000, 8, 2609-2616; each herein incorporated by reference in its entirety)). The experiments employed SPR spectroscopy to determine the binding constant KD for dendrimer-based multivalent vancomycin conjugates to the cell wall ligands immobilized on the chip surface as a model for the bacterial cell surface. The model surface was prepared by utilizing each CMS sensor chip which was treated to present N^α-Ac-Lys-(D)-Ala-(D)-Ala or N^α-Ac-(D)-Ala-(D)-Lac as the cell wall precursor on the surface, each representing a vancomycin-susceptible and vancomycin-resistant cell wall model, respectively (see, e.g., Rao, J.; et al., Chem. Biol. (Cambridge, Mass., U.S.) 1999, 6, 353-359; Rao, J.; et al., J. Am. Chem. Soc. 1999, 121, 2629-2630; each herein incorporated by reference in its entirety)). Such a peptide-presenting chip was prepared typically following a N-(3-dimethylaminopropyl)-N′-ethylcarbodiimide (EDC)-based amide coupling method at a surface peptide density of 0.12 ng/mm^2 (equivalent to 2.2×10^11 molecules/mm^2) (see, e.g., Hong, S.; et al., Chem. Biol. (Cambridge, Mass., U.S.) 2007, 14, 107-115; Plantinga, A.; et al., ACS Med. Chem. Lett. 2011, 2, 363-367; each herein incorporated by reference in its entirety)).
SPR spectroscopy. […]

For a further test, the system named is Staphylococcus aureus. Nature of the test: Turbidity assay (bacterial cell lysis / growth). The following applies: OD at 650 nm, 24 h. Type of test: cell-based. From the text: This example describes bacterial cell lysis experiments. Whether the binding of the vancomycin-conjugated dendrimer to the bacterial membrane causes bacterial cell lysis was next investigated. […] S.; et al., Antimicrob. Agents Chemother. 2009, 53, 3375-3383; herein incorporated by reference in its entirety)). On the other hand, the lack of such a mechanism would be more desirable for the diagnostic applications that aim for bacterial detection, isolation, and enumeration of whole cells. To determine the degree of cell lysis, a turbidity assay was employed. This assay quantitates the bacterial population in a culture by measuring the optical density (OD at 650 nm), and the cell populations are correlated with the degree of lysis (see, e.g., Chung, H. S.; et al., Proc. Natl. Acad. Sci. U.S.A. 2009, 106, 21872-21877; Lunde, C. S.; et al., Antimicrob. Agents Chemother. 2009, 53, 3375-3383; each herein incorporated by reference in its entirety)). Effects of the conjugates I-VI, VIII, IX on the cell growth rate were determined using the same Gram-positive strain Staphylococcus aureus and were presented as a function of the inhibitor concentration (FIGS. 12 and 13). […]
Turbidity assay. […] After incubation of the plates at 37° C. for 24 h, bacterial growth was examined by optical microscopy and reading an optical density (O. D.) value at 650 nm by an ELISA plate reader.

Test [4] concerns N^α-Ac-Lys-(D)-Ala-(D)-Lac peptide. Nature of the test: SPR binding to vancomycin-resistant bacterial cell wall model. From the text: SPR spectroscopy is a real-time kinetic method that allows the measurement of the on-rate constant (kon), the off-rate constant (koff), and equilibrium dissociation constant KD (=koff/kon) for receptor-ligand interactions occurring on the surface (see, e.g., Rao, J.; et al., Chem. Biol. (Cambridge, Mass., U.S.) 1999, 6, 353-359; Rao, J.; et al., J. Am. Chem. Soc. 1999, 121, 2629-2630; Hong, S.; et al., Chem. Biol. (Cambridge, Mass., U.S.) 2007, 14, 107-115; Li, M.-H.; Eur. J. Med. Chem. 2012, 47, 560-572; Plantinga, A.; et al., ACS Med. Chem. Lett. 2011, 2, 363-367; Cooper, M. A.; et al., Bioorg. Med. Chem. 2000, 8, 2609-2616; each herein incorporated by reference in its entirety)). The experiments employed SPR spectroscopy to determine the binding constant KD for dendrimer-based multivalent vancomycin conjugates to the cell wall ligands immobilized on the chip surface as a model for the bacterial cell surface. […]

For a further test, the system named is bacterial cells. The note with it: reported in literature; cited from earlier work.
The target in test [5] is N^α-Ac-Lys-(D)-Ala-(D)-Lac peptide. The test is described as follows: SPR (Biacore X), peptide immobilised on CM5 chip, Langmuir fit.
The target is the same in test [6]. The test is described as follows: SPR; ratio against free vancomycin.
Test [7] has as its target N^α-Ac-Lys-(D)-Ala-(D)-Ala peptide. The test is described as follows: SPR (Biacore X), peptide immobilised on CM5 chip, Langmuir fit.
For test [8] the target is unchanged. The test is described as follows: SPR; ratio against free vancomycin.
The target is the same in test [9]. The test is described as follows: SPR (Biacore X), peptide immobilised on CM5 chip, Scatchard analysis.
The target in test [10] is N^α-Ac-Lys-(D)-Ala-(D)-Lac peptide. The description is as above.
The target in test [11] is N^α-Ac-Lys-(D)-Ala-(D)-Ala peptide. The test is described as follows: SPR; vancomycin is the reference.
Test [12] deals with N^α-Ac-Lys-(D)-Ala-(D)-Lac peptide. Nature of the test: SPR; vancomycin is the reference.

Values joined by “and” are separate entries in the source; they are usually repeats but may differ in a detail not shown here. Equal entries are not always repeated. Where two headings read alike, the source gives them in different places.

`CN[C@H](CC(C)C)C(=O)N[C@H]1C(=O)N[C@@H](CC(N)=O)C(=O)N[C@H]2C(=O)N[C@H]3C(=O)N[C@H](C(=O)N[C@H](C(=O)O)c4cc(O)cc(O)c4-c4cc3ccc4O)[C@H](O)c3ccc(c(Cl)c3)Oc3cc2cc(c3O[C@@H]2O[C@H](CO)[C@@H](O)[C@H](O)[C@H]2O[C@H]2C[C@](C)(N)[C@H](O)[C@H](C)O2)Oc2ccc(cc2Cl)[C@H]1O` [Vancomycin, vancomycin]: the Kd was approximately 1 µM in [1]; ~1000 µM and 1700 µM in test [2] (vancomycin to (D)-Ala-(D)-Lac, literature); 0.95 µM in test [3]; 0.95 µM in test [3] (mean (SEM), vancomycin by Scatchard analysis); 1500 µM and ~1500 µM in test [4] ((D)-Ala-(D)-Lac surface, mean (SEM), vancomycin by Scatchard analysis). Besides, in [2] (relative to (D)-Ala-(D)-Ala, reported), the “reduction in affinity of (D)-Ala-(D)-Lac surface to free vancomycin” value is on record as approximately 1000 fold. Further, the “SPR binding response to the (D)-Ala-(D)-Ala surface” value in test [3] (in words, vancomycin at concentrations as low as 2 nM) is “no detectable response”. In the test with Staphylococcus aureus, the “concentration at which optical density decreased to the background level” value is not below 0.1 µM. Further, the “SPR binding response to the (D)-Ala-(D)-Lac surface” value in test [4] (in words) is listed as “very low responses”.
Regarding `CCCCCCCCCCNCCN[C@@]1(C)C[C@H](O[C@H]2[C@H](Oc3c4cc5cc3Oc3ccc(cc3Cl)[C@@H](O)[C@@H](NC(=O)[C@@H](CC(C)C)NC)C(=O)N[C@@H](CC(N)=O)C(=O)N[C@H]5C(=O)N[C@H]3C(=O)N[C@H](C(=O)N[C@H](C(=O)O)c5cc(O)c(CNCP(=O)(O)O)c(O)c5-c5cc3ccc5O)[C@H](O)c3ccc(c(Cl)c3)O4)O[C@H](CO)[C@@H](O)[C@@H]2O)O[C@@H](C)[C@H]1O` [telavancin], the “bactericidal activity / cell lysis” value in the test with bacterial cells is recorded as “potent bactericidal activity without causing cell lysis”.
For the compound I Ac-G5-(V)1.2, in [5], the Kd came out at 0.0071 µM, the koff was 0.00066 s⁻¹ and the kon is 98000 M⁻¹ s⁻¹. For the same compound, in test [6], the valency-corrected β (= β ÷ n) was found to be 18000 and the β (multivalent binding enhancement = KD vancomycin ÷ KD G5-(V)n) stood at 210000.
In [7], II Ac-G5-(V)2.3 came in with a Kd of 0.0034 µM, a koff of 0.00045 s⁻¹ and an on-rate constant (kon) of 150000 M⁻¹ s⁻¹. In addition, in [5], the dissociation constant Kd was found to be 0.0081 µM, the koff was 0.00041 s⁻¹ and the kon came to 320000 M⁻¹ s⁻¹. Also, in test [8], the valency-corrected β (= β ÷ n) worked out at 122 and the β (multivalent binding enhancement = KD vancomycin ÷ KD G5-(V)n) came out at 280. In test [6], the valency-corrected β (= β ÷ n) turned out to be 81000 and the β (multivalent binding enhancement = KD vancomycin ÷ KD G5-(V)n) is 190000.
Take III Ac-G5-(V)3.5: in [5], the Kd came out at 0.002 µM, the koff is 0.00045 s⁻¹ and the kon was determined as 640000 M⁻¹ s⁻¹. For the same compound, in test [6], the valency-corrected β (= β ÷ n) was 210000 and the β (multivalent binding enhancement = KD vancomycin ÷ KD G5-(V)n) was 750000.
In test [7], IV Ac-G5-(V)5.8 gave a dissociation constant Kd of 0.00025 µM, a koff of 4.4e-05 s⁻¹ and a kon of 450000 M⁻¹ s⁻¹. In addition, in [5], the Kd is 0.0017 µM, the koff turned out to be 0.00029 s⁻¹ and the kon stood at 690000 M⁻¹ s⁻¹. Moreover, in test [8], the valency-corrected β (= β ÷ n) came out at 655 and the β (multivalent binding enhancement = KD vancomycin ÷ KD G5-(V)n) is 3800. In addition, in test [6], the valency-corrected β (= β ÷ n) turned out to be 150000 and the β (multivalent binding enhancement = KD vancomycin ÷ KD G5-(V)n) worked out at 880000.
In [7], VI GA-G5-(V)6.0 registered a dissociation constant Kd of 0.00054 µM, a koff of 0.00036 s⁻¹ and a kon of 670000 M⁻¹ s⁻¹. In test [5], this compound gave a Kd of 0.0034 µM, an off-rate constant (koff) of 0.0028 s⁻¹ and a kon of 1.8e+06 M⁻¹ s⁻¹. In addition, in test [8], the valency-corrected β (= β ÷ n) was determined as 293 and the β (multivalent binding enhancement = KD vancomycin ÷ KD G5-(V)n) amounted to 1760. In test [6], the valency-corrected β (= β ÷ n) was found to be 74000 and the β (multivalent binding enhancement = KD vancomycin ÷ KD G5-(V)n) stood at 440000.
Take Vancomycin (peptide): the Kd came out at 0.95 µM in test [9] and 1500 µM in [10]. The β (multivalent binding enhancement = KD vancomycin ÷ KD G5-(V)n) in [11] and in test [12] was 1 throughout.

The values are drawn from US20150306238A1, “BACTERIA TARGETING NANOPARTICLES AND RELATED METHODS OF USE” (THE REGENTS OF THE UNIVERSITY OF MICHIGAN, priority 2012, published 2015).
